The values below come from paper PMC3230775 (Nature structural & molecular biology, 2011).

Experiment [1] has as its target p130Cas C-terminal domain (residues 645-870) (human) (UniProt P56945). In words: crystal structure.
For experiment [2], the target named is T1, BCAR3 C-terminal domain (residues 502-825) (human, UniProt O75815 502-825).
T1 sequence: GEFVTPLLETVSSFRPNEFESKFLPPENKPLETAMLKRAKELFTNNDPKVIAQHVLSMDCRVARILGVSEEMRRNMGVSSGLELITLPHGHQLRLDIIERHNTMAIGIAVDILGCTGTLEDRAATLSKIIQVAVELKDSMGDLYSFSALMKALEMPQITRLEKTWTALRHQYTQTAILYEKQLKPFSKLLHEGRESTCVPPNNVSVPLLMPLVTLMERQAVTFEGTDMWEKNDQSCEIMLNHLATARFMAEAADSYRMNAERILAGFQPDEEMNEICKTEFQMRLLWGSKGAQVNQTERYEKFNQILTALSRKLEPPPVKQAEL
In words: ITC. Background: In ITC the heat of successive injections is recorded.

Turning to “NSP3 C-terminal domain (residues 382-703) (domain or fragment)”, in experiment [1], the stoichiometry N (usually the number of molecules, sites or subunits per partner or assembly) stood at 1.

B1: p130Cas C-terminal domain (residues 645-870) (domain or fragment)
chain: SQDSPDGQYENSEGGWMEDYDYVHLQGKEEFEKTQKELLEKGSITRQGKSQLELQQLKQFERLEQEVSRPIDHDLANWTPAQPLAPGRTGGLGPSDRQLLLFYLEQCEANLTTLTNAVDAFFTAVATNQPPKIFVAHSKFVILSAHKLVFIGDTLSRQAKAADVRSQVTHYSNLLCDLLRGIVATTKAAALQYPSPSAAQDMVERVKELGHSTQQFRRVLGQLAAA
As for B1, in experiment [2], the dissociation constant Kd (commonly a measure of binding affinity in units of concentration) is 30 nM.
